In the supplement of paper PMC9170038:

System: MS2 coat protein
Test: apparent KD of MS2 coat protein; designed switch direction (-1 OFF switch, 1 ON switch): 1; higher = weaker reporter binding
Outline: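 The reported apparent KD is a per-design median over clusters, from curve fits of normalised cluster fluorescence. Protein titrations used SNAP-549-labelled MS2 coat protein, doubled from 0.7 or 1.5 nM to 3 µM, in Tris-HCl pH 7.5 buffer with KCl, MgCl2, BSA, DTT, tRNA and Tween-20, with no input, 200 uM small-molecule ligand, or an oligonucleotide input. The RNA switches were transcribed on Illumina chips by stalled E. coli RNA polymerase.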

[1] = input ligand: microRNA oligo, concentration not stated
[2] = Eterna round: R95, input ligand: FMN 200 uM
[3] = Eterna round: R95, input ligand: microRNA oligo, concentration not stated
[4] = Eterna round: R95, input ligand: none

Sequence | apparent KD of MS2 coat protein (input ligand: FMN 200 uM) [nM] | apparent KD of MS2 coat protein [1] [nM] | apparent KD of MS2 coat protein (input ligand: none) [nM] | apparent KD of MS2 coat protein [2] [nM] | apparent KD of MS2 coat protein [3] [nM] | apparent KD of MS2 coat protein [4] [nM]
CUGAGCAAUCAAGGAUAUCACGUCGUUUAGACGUGAGAAGGUGAUCAUAACAUGAGGAUCACCCAUGUAUUACAUGAAGCUCAG [SSNG1/1-A3] (Eterna round: R96, puzzle: Same State NG 1) | 767 | 363 | 919 | – | – | –
CUCAACAACACAGGAUAUCCAGGGAAAAGCCCUGGAGAAGGGUGACCAACAUGAGGAUCACCCAUGUGACGGCUAAACCGUCUG [Inususisre] (Eterna round: R96, puzzle: Same State NG 1) | 319 | 509 | 60.7 | – | – | –
UAGUGUUUGCGAGGAUAUCGUUUGUUGAAGUUACGAGAAGGCGCUCUAAUUACAUGAGGAUCACCCAUGUCUGUGAUGCAUGAU [JR_SSNG1_Sub070] (Eterna round: R96, puzzle: Same State NG 1) | 65.2 | 56.3 | 70 | – | – | –
GGAUGAUAGACAGGAUAUUGAAUGUAAAUAGGACAAGAAGGGUCAAUGAUAUAAACGACCAGUUACAUGAGGAUCACCCAUGUU [JR_SSNG1_Sub023] (Eterna round: R96, puzzle: Same State NG 1) | 37.1 | 30.5 | 38.9 | – | – | –
AUUAAACAUGAGGAUCACCCAUGUCAACAAAGUCGAGGAUAUGGGCAAAUAAAAUAAGAACCAGAAGGCGAAUUAU [salish99_ss1_r3_079] (puzzle: Same State 1) | – | – | – | 32.6 | 337 | 312
UUCCUACAUGAGGAUCACCCAUGUGACGCCUCGAUAGGAUAUGCGUGUGCCUUGGCGCAUGCAGAAGGGUUGUAGC [JL Aveso mod 9] (puzzle: Same State 1) | – | – | – | 39.2 | 34.8 | 37.5
CUGAGCAGUCAAGGAUAUCACGUCGAUUAGACGUGAGAAGGUGAUCAUUACAUGAGGAUCACCCAUGUGUUACAUGGAGCUCAG [Brourd's SSNG1/1-A2 mod 5] (Eterna round: R96, puzzle: Same State NG 1) | 413 | 49.1 | 358 | – | – | –
GCGUUUAACGUAGGAUAUCGACCUACAUGAGGAUCACCCAUGUCUUUGUAUAGUUUUUUUUGUUACGAGAAGGACGUUUUGCAU [JR_SSNG2_Sub070] (Eterna round: R96, puzzle: Same State NG 2) | 75.1 | 95.2 | 122 | – | – | –
CAGCGCUGUCGAGAGGAUAUGUGGUGAUGGACAUGAGGAUCACCCAUGUUAGCGACAGUAUCACGGCAGAAGGCUCUACCGCUGC [Soteed Omei mod 31] (puzzle: Same State 2) | – | – | – | 56.1 | 38.1 | 44
GUGCGAGUGCCACAGGAUAUACGUGGAUCGACAUGAGGAUCACCCAUGUAUAUCCUAAUAAUUGCGUAGAAGGGUGGUCAGUCGG [Inzage] (puzzle: Same State 2) | – | – | – | 136 | 74.8 | 105
CCGAUCUACCGAAAGGUAGAUGGGCUUGUACAUGAGGAUCACCCAUGUCAGUACAAGCUUUUUGCUCCUCUUAUCCU [salish99-hsa-208a-40] (Eterna round: R96, puzzle: Sensor for hsa-mir-208a) | 41.8 | 14 | 42.7 | – | – | –
GUUACAUGAGGAUCACCCAUGUAUGUGUGGGAGUAAGUGUCUUAGGAUAUCUAUGAUUUAGUUUAAGAGAAGGAAGAUUGUUGU [JMF's solution 79] (Eterna round: R96, puzzle: Same State NG 3) | 117 | 86.3 | 111 | – | – | –
AUAAAACAUGAGGAUCACCCAUGUCAACAAAGUCGAGGAUAUGGGCAAAGAAAAUAAGAACCAGAAGGCGAAUAAU [salish99_ss1_r3_056] (puzzle: Same State 1) | – | – | – | 36.2 | 319 | 489
